The text below walks through data of article PMC9348577, “Dimerization of kringle 1 domain from hepatocyte growth factor/scatter factor provides a potent MET receptor agonist” (Life Science Alliance, 2022).

The target in assay [1] is T1, MET567 (human, UniProt P08581 25-567).
T1 construct: human MET receptor fragment MET567 comprising the N-terminal SEMA domain and the cysteine-rich/PSI domain; as I recall it spans residues 25-567 of MET; also called MET567 receptor fragment; MET567 fragment; source: CHO Lec 3.2.8.1 cells, purified as described in Gherardi et al (2003)
T1 sequence (P08581 25-567): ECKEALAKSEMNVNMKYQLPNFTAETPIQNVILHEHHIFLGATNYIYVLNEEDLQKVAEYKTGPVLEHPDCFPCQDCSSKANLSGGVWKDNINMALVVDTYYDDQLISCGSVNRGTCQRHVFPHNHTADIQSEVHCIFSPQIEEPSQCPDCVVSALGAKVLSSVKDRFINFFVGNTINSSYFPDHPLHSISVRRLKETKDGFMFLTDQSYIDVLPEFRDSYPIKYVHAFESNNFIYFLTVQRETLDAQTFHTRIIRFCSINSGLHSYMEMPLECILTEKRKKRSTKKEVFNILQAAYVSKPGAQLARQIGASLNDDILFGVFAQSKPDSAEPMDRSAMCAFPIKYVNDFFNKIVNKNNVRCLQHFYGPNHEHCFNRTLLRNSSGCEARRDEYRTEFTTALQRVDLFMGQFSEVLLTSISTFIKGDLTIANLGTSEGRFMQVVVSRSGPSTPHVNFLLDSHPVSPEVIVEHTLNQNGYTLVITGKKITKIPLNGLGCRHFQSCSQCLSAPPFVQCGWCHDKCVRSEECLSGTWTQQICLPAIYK
The assay is described as follows: SPR; Biacore T200; MET567 immobilised at low density (515 RU) by amine coupling on a CM5 chip; 25°C, PBST (PBS + 0.05% Tween 20), 30 ul/min, 300-s injections to equilibrium; apparent KD from the binding isotherm. The conditions noted are these: both partners purified. (In general: SPR reads the build-up and loss of mass on a sensor chip optically.)

The target in assay [2] is T1, MET567. Kind of assay: SEC-SAXS; K1K1 in complex with MET567 injected on Superdex 200 PC 3.2/300 Increase on line with SAXS (ESRF BM29); 25 mM Tris (pH 7.4), 150 mM NaCl. Conditions: both partners purified.

B1: NK1 (natural protein, human, UniProt P14210 28-209, looked up)
chain: YAEGQRKRRNTIHEFKKSAKTTLIKIDPALKIKTKKVNTADQCANRCTRNKGLPFTCKAFVFDKARKQCLWFPFNSMSSGVKKEFGHEFDLYENKDYIRNCIIGKGRSYKGTVSITKSGIKCQPWSSMIPHEHSFLPSSYRGKDLQENYCRNPRGEEGGPWCFTSNPEVRYEVCDIPQCSEV
notes: human NK1, splice variant of HGF/SF with the N-domain and the first kringle domain (K1), residues 28-209; also called recombinant human NK1 protein; wild-type NK1; source: Pichia pastoris, purified as described in Chirgadze et al (1999)
As for B1, the Kd in the assay with MET567 [1] came to 200 nM.

B2: K1K1 (ligand)
chain: AIRNCIIGKGRSYKGTVSITKSGIKCQPWSSMIPHEHSFLPSSYRGKDLQENYCRNPRGEEGGPWCFTSNPEVRYEVCDIPQCSEVECIIGKGRSYKGTVSITKSGIKCQPWSSMIPHEHSFLPSSYRGKDLQENYCRNPRGEEGGPWCFTSNPEVRYEVCDIPQCSEVE
modifications: Intra-kringle disulphides (three per kringle). The initiator Met of the MAIRN construct is absent from the 7OCL entity, so paper numbering = entity number + 1. Layout: (M)AIRN + HGF 128-206 + SEVE + …
Broadly, the stoichiometry N is a count of units in the complex or per binding partner. Consider B2, for which, in the assay with MET567 [1], the Kd was 205 nM. Moreover, in the assay with MET567 [2], the “stoichiometry N” value came out at 1.
